In patent US20250034266A1 (ZAI LAB SHANGHAI, published 2025):
Where two headings read alike, the source gives them in different places.

Legend:
[1] = target: T1, cynomolgus CCR8 (cynomolgus, UniProt G7NYJ2 1-355); test: FACS on HEK293-cynomolgus CCR8 cells
T1 construct: whole, on cells
Procedure: (§1) Binding affinities of NG site removed antibodies were determined on human CCR8 and cynomolgus CCR8 overexpression cells. Briefly, CFSE labeled HEK293-human CCR8 cells or CFSE labeled HEK293-cynomolgus CCR8 cells were mixed with HEK293 cells. The mixed ratio was 1:1. A total of 5×10⁴ mixed cells for each well were seeded in 96-well plates and washed by FACS buffer (DPBS containing 1% FBS) once. Cells were incubated by serial diluted purified hybridoma antibodies for 1 hour at 4° C. Antibodies were prepared with 3-fold serial dilution ranging from 100 nM to 0.0017 nM or from 25.3165 nM to 0.0004 nM in FACS buffer. […] After primary antibody incubation, cells were washed by FACS buffer for three times. Then, cells were stained with secondary antibody (Alexa Flu647-conj gated rabbit anti-mouse IgG, Jackson ImmunoResearch, #315606046) at 1:600 dilution in FACS buffer, incubated for 0.5 hour at 4° C. […] FlowJo software was used for analysis. Data was plotted as the logarithm of antibody concentration versus mean fluorescence signals. EC₅₀ values were calculated in GraphPad Prism 8 (GraphPad Software) using a log (agonist) vs. response-Variable slope (4 parameters) curve fit.

[2] = target: T2, human CCR8 (human, UniProt P51685 1-355); test: FACS, competition with AF647-human CCL1 on CHO-K1-human CCR8 cells
T2 construct: whole, on cells; also called hCCR8
Procedure: Blocking curves were generated to rank the blocking activities of PTM sites removed antibodies. Briefly, a total of 5×10⁴ CHO-K1-human CCR8 cells for each well were seeded in 96-well plate. Cells were incubated by series diluted purified hybridoma antibodies and 4 nM AF647 labeled human CCL1 (Almac, #CAF-07) for 1 hour at 4° C. Antibodies were prepared with 3-fold serial dilution ranging from 100 nM to 0.0051 nM in FACS buffer. Then, cells were washed by FACS buffer for three times after incubation. […] FlowJo software was used for analysis. Data was plotted as the logarithm of antibody concentration versus mean fluorescence signals. IC₅₀ values were determined in GraphPad Prism 8 (GraphPad Software) using a log(agonist) vs. response-Variable slope (4 parameters) curve fit.

[3] = target: T2, human CCR8; test: FACS on HEK293-human CCR8 cells
Procedure: as §1

[4] = target: T2, human CCR8; test: FACS on HEK293-human CCR8 cells; remark: listed apart in the source
Procedure: (§2) A total of 5×10⁴ cells for each well were seeded in 96-well plates and washed with FACS buffer (DPBD containing 1.5% FBS) for once. Antibodies were prepared with 3-fold serial dilution ranging from 100 nM to 0.0017 nM in FACS buffer. Cells were incubated with 50 μL of diluted antibodies at 4° C. for 1 hour. […] After primary antibody incubation, cells were washed for 3 times by FACS buffer. Then, cells were stained by Alexa Flu647 labeled anti-human IgG secondary antibody (Jackson ImmunoResearch, #109606170) or Alexa Flu647 labeled anti-mouse IgG secondary antibody (Jackson ImmunoResearch, #115605072) at 1:600 dilution in FACS buffer for 0.5 hour at 4° C. After washed for 3 times, Flow cytometry was performed to measure the binding.

[5] = target: T2, human CCR8; test: FACS, competition with AF647-human CCL1 on CHO-K1-human CCR8 cells; remark: listed apart in the source
[6] = target: T1, cynomolgus CCR8; test: FACS on HEK293-cynomolgus CCR8 cells; remark: listed apart in the source
Procedure: as §2

T2 sequence (P51685 whole entry): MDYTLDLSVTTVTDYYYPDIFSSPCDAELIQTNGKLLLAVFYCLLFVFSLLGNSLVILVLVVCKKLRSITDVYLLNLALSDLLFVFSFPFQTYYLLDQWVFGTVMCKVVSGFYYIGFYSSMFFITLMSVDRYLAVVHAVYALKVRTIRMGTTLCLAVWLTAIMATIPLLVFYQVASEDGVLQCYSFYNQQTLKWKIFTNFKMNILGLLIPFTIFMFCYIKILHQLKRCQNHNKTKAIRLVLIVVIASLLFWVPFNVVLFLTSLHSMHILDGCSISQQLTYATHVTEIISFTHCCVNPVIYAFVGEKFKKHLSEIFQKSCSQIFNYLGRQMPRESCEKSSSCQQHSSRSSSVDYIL
T1 sequence (G7NYJ2 entry or part of it): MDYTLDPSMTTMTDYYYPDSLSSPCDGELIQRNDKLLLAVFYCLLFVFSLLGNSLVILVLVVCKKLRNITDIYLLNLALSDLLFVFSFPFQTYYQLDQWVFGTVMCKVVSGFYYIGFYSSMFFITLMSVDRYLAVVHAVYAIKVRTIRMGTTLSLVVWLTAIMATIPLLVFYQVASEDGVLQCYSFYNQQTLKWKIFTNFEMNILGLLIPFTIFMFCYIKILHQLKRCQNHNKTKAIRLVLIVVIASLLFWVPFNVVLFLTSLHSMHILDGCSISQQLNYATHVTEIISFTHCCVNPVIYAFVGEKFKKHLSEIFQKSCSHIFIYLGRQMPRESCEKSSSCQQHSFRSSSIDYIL

Row | EC50 [1] [nM] | Max MFI [1] [MFI] | IC50 [2] [nM] | Max Inhibition (%) [2] [%] | EC50 [3] [nM] | Max MFI [3] [MFI] | EC50 [4] [nM] | Max MFI [4] [MFI] | IC50 [5] [nM] | Max Inhibition (%) [5] [%] | EC50 [6] [nM] | Max MFI [6] [MFI] | Binder
1 | 0.211 | 4680 | 1.04 | 72 | 0.194 | 1900 |  |  |  |  |  |  | 149F2C10_G29V (antibody, V domains shown, NG site removed variant of 149F2C10) VH: EVQLVESGGGLVQPKGSLKLSCAASGFTFNTYAMNWVRQAPGKGLEWVARIRSKSNFYATYYADSVKDRFTISRDDSQDMLYLQMNILKTEDTAIYYCVRGRDYGSSYAMDYWGQGTSVTVSS VL: DIVMTQAAPSVPVTPGESVSISCRSSKSLLHSNVNTYLYWFLQRPGQSPQLLIYRMSNLASGVPDRFSGSGSGTAFTLRISRVEAEDVGVYYCMQHLEYPLTFGAGTKLELK
2 | 0.131 | 3310 | 0.934 | 80.1 | 0.142 | 1740 |  |  |  |  |  |  | 149F2C10-CHO (antibody, V domains shown, The suffix -CHO is not explained) VH: EVQLVESGGGLVQPKGSLKLSCAASGFTFNTYAMNWVRQAPGKGLEWVARIRSKSNFYATYYADSVKDRFTISRDDSQDMLYLQMNILKTEDTAIYYCVRGRDYGSSYAMDYWGQGTSVTVSS VL: DIVMTQAAPSVPVTPGESVSISCRSSKSLLHSNGNTYLYWFLQRPGQSPQLLIYRMSNLASGVPDRFSGSGSGTAFTLRISRVEAEDVGVYYCMQHLEYPLTFGAGTKLELK
3 | 0.314 | 1890 | 2.25 | 65.3 | 0.244 | 1650 |  |  |  |  |  |  | 149F2C10_N28I (antibody, V domains shown, NG site removed variant of 149F2C10) VH: EVQLVESGGGLVQPKGSLKLSCAASGFTFNTYAMNWVRQAPGKGLEWVARIRSKSNFYATYYADSVKDRFTISRDDSQDMLYLQMNILKTEDTAIYYCVRGRDYGSSYAMDYWGQGTSVTVSS VL: DIVMTQAAPSVPVTPGESVSISCRSSKSLLHSIGNTYLYWFLQRPGQSPQLLIYRMSNLASGVPDRFSGSGSGTAFTLRISRVEAEDVGVYYCMQHLEYPLTFGAGTKLELK
4 | 0.209 | 2450 | 3.07 | 55.7 | 0.161 | 1640 |  |  |  |  |  |  | 149F2C10_N28Q (antibody, V domains shown, NG site removed variant of 149F2C10; detected with anti-mouse IgG) VH: EVQLVESGGGLVQPKGSLKLSCAASGFTFNTYAMNWVRQAPGKGLEWVARIRSKSNFYATYYADSVKDRFTISRDDSQDMLYLQMNILKTEDTAIYYCVRGRDYGSSYAMDYWGQGTSVTVSS VL: DIVMTQAAPSVPVTPGESVSISCRSSKSLLHSQGNTYLYWFLQRPGQSPQLLIYRMSNLASGVPDRFSGSGSGTAFTLRISRVEAEDVGVYYCMQHLEYPLTFGAGTKLELK
5 | 0.333 | 2020 | 15 | 44.9 | 0.21 | 1420 |  |  |  |  |  |  | 149F2C10_N28S (antibody, V domains shown, NG site removed variant of 149F2C10) VH: EVQLVESGGGLVQPKGSLKLSCAASGFTFNTYAMNWVRQAPGKGLEWVARIRSKSNFYATYYADSVKDRFTISRDDSQDMLYLQMNILKTEDTAIYYCVRGRDYGSSYAMDYWGQGTSVTVSS VL: DIVMTQAAPSVPVTPGESVSISCRSSKSLLHSSGNTYLYWFLQRPGQSPQLLIYRMSNLASGVPDRFSGSGSGTAFTLRISRVEAEDVGVYYCMQHLEYPLTFGAGTKLELK
6 |  |  |  |  |  |  | 0.534 | 7610 | 0.936 | 99.2 | 0.578 | 20900 | Hu149-1 (antibody, V domains shown, humanized IgG, detected with anti-human IgG) VH: EVQLVESGGGLVQPGGSLKLSCAASGFTFNTYAMNWVRQASGKGLEWVGRIRSKSNFYATYYAASVKGRFTISRDDSKNTAYLQMNSLKTEDTAVYYCVRGRDYGSSYAMDYWGQGTLVTVSS VL: DIVMTQSPLSLPVTPGEPASISCRSSKSLLHSNANTYLYWFLQKPGQSPQLLIYRMSNLASGVPDRFSGSGSGTDFTLKISRVEAEDVGVYYCMQHLEYPLTFGGGTKVELK
7 |  |  |  |  |  |  |  | 138 | 2.37 | 1 |  | 443 | Hu149-6 (antibody, V domains shown, humanized IgG) VH: EVQLVESGGGLVQPGGSLKLSCAASGFTFNTYAMHWVRQASGKGLEWVGRIRSKSNFYATYYAASVKGRFTISRDDSKNTAYLQMNSLKTEDTAVYYCVRGRDYGSSYAMDYWGQGTLVTVSS VL: DIVMTQSPLSLPVTPGEPASISCRSSKSLLHSNANTYLYWYLQKPGQSPQLLIYRMSNLASGVPDRFSGSGSGTDFTLKISRVEAEDVGVYYCMQHLEYPLTFGGGTKVELK
8 |  |  |  |  |  |  | 15 | 2470 | 49.6 | 57.3 |  | 414 | Hu149-5 (antibody, V domains shown, humanized IgG) VH: EVQLVESGGGLVQPGGSLKLSCAASGFTFNTYAMNWVRQASGKGLEWVGRIRSKSNFYATYYAASVKGRFTISRDDSKNTAYLQMNSLKTEDTAVYYCVRGRDYGSSYAMDYWGQGTLVTVSS VL: DIVMTQSPLSLPVTPGEPASISCRSSKSLLHSNANTYLYWYLQKPGQSPQLLIYRMSNLASGVPDRFSGSGSGTDFTLKISRVEAEDVGVYYCMQHLEYPLTFGGGTKVELK
9 |  |  |  |  |  |  | 0.193 | 7000 | 0.478 | 99.2 | 0.205 | 19900 | Hu149-3 (antibody, V domains shown, humanized IgG) VH: EVQLVESGGGLVQPGGSLKLSCAASGFTFNTYAMNWVRQASGKGLEWVGRIRSKSNFYATAYAASVKGRFTISRDDSKNTAYLQMNSLKTEDTAVYYCVRGRDYGSSYAMDYWGQGTLVTVSS VL: DIVMTQSPLSLPVTPGEPASISCRSSKSLLHSNANTYLYWFLQKPGQSPQLLIYRMSNLASGVPDRFSGSGSGTDFTLKISRVEAEDVGVYYCMQHLEYPLTFGGGTKVELK
10 |  |  |  |  |  |  | 6.42 | 3110 | 37.8 | 59 |  | 488 | Hu149-7 (antibody, V domains shown, humanized IgG) VH: EVQLVESGGGLVQPGGSLKLSCAASGFTFNTYAMNWVRQASGKGLEWVGRIRSKSNFYATAYAASVKGRFTISRDDSKNTAYLQMNSLKTEDTAVYYCVRGRDYGSSYAMDYWGQGTLVTVSS VL: DIVMTQSPLSLPVTPGEPASISCRSSKSLLHSNANTYLYWYLQKPGQSPQLLIYRMSNLASGVPDRFSGSGSGTDFTLKISRVEAEDVGVYYCMQHLEYPLTFGGGTKVELK
11 |  |  |  |  |  |  | 3.48 | 1120 | 12.5 | 39.5 | 146 | 1550 | Hu149-2 (antibody, V domains shown, humanized IgG) VH: EVQLVESGGGLVQPGGSLKLSCAASGFTFNTYAMHWVRQASGKGLEWVGRIRSKSNFYATYYAASVKGRFTISRDDSKNTAYLQMNSLKTEDTAVYYCVRGRDYGSSYAMDYWGQGTLVTVSS VL: DIVMTQSPLSLPVTPGEPASISCRSSKSLLHSNANTYLYWFLQKPGQSPQLLIYRMSNLASGVPDRFSGSGSGTDFTLKISRVEAEDVGVYYCMQHLEYPLTFGGGTKVELK
